From publication PMC2917274, “Structure of Staphylococcus aureus adenylosuccinate lyase (PurB) and assessment of its potential as a target for structure-based inhibitor discovery” (Acta Crystallographica Section D: Biological Crystallography, 2010)

T1: SaPurB (Staphylococcus aureus, UniProt Q7A0G9)
T1 construct: gene purB; full length (domains described over residues 1-431); N-terminal His tag removed by TEV protease (modified pET15b); expressed in E. coli BL21(DE3) pLysS; dimer in gel filtration, homotetramer in crystal, each active site from three subunits
T1 sequence (Q7A0G9 1-431): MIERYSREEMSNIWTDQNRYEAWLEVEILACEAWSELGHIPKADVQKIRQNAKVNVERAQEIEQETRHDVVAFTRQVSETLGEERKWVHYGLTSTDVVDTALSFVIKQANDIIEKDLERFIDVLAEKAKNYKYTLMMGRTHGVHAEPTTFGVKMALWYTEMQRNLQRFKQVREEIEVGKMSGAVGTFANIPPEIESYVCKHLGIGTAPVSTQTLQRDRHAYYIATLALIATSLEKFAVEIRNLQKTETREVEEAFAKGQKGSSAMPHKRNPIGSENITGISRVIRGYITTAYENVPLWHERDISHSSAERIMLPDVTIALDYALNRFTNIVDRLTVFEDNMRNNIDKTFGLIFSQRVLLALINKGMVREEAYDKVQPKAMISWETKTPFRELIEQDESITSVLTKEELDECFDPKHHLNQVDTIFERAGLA

B1: Staphylococcus aureus adenylosuccinate lyase (PurB) (enzyme, UniProt Q2FFI7 1-431, looked up)
chain: T1 sequence (Q7A0G9 1-431)
notes: domains I-III span residues 1-431; theoretical subunit mass 49.6 kDa; Vector pET15b changed to carry a TEV site in place of the thrombin site; Dimer by gel filtration, tetramer in the crystal; also called SaPurB

Tests used:
[1] = target: T1, SaPurB; test: X-ray crystal structure, […] Å; type: binding; conditions: co-crystallized with 25 mM AMP, pH 6.2, 293 K; active site; oxalate tentatively modelled nearby
[2] = target: the molecule itself; test: crystal structure; 2.5 A, space group I222, one chain per asymmetric unit, tetramer built by crystallographic twofold axes; with AMP and oxalate; crystals at 293 K from 45% PEG 200, 0.2 M NaCl, 0.1 M sodium phosphate pH 6.2
[3] = target: the molecule itself; test: SEC; Superdex 200 26/60, 50 mM Tris-HCl, 250 mM NaCl pH 7.5, column calibrated with molecular-weight standards; final stage of purification

Molecule	X-ray crystal structure, 2.5 Å [1]	stoichiometry N [2]	stoichiometry N [3]
Nc1ncnc2c1ncn2[C@@H]1O[C@H](COP(=O)(O)O)[C@@H](O)[C@H]1O [AMP]	The structure of AMP in the active site of SaPurB	–	–
B1	–	4	2
